Assay results: patent publication US6794178

Molecular target: microtubules

B1: Bacterially expressed and purified KinI-3 protein (protein)
chain: DCDIPIIQRISHVSGYNYGIPHSCIRQNTSEKQNPWTEMEKIRVCVRKRPLGMREVRRGEINIITVEDKETLLVHEKKEAVDLTQYILQHVFYFDEVFGEACTNQDVYMKTTHPLIQHIFNGGNATCFAYGQTGAGKTYTMIGTHENPGLYALAAKDIFRQLEVSQPRKHLFVWISFYEIYCGQLYDLLNRRKRLFAREDSKHMVQIVGLQELQVDSVELLLEVILKGSKERSTGATGVNADSSRSHAVIQIQIKDSAKRTFGRISFIDLAGSERAADARDSDRQTKMEGAEINQSLLALKECIRALDQEHTHTPFRQSKLTQVLKDSFIGNAKTCMIANISPSHVATEHTLNTLRYADRVKEL
- microtubule depolymerization (tubulin in supernatant after centrifugation, SDS-PAGE), AL + ATP/MT: Track 3 shows an increase in tubulin in the supernatant that indicates depolymerization in the presence of ATP
- microtubule depolymerization (tubulin in supernatant), AL + MT + ADP: No depolymerization was observed ... in the presence of ADP (track 6)
- microtubule depolymerization (tubulin in supernatant), AL + MT/AMPPNP: No depolymerization was observed ... in the presence of AMP-PNP (track 5)
- microtubule depolymerization (tubulin in supernatant), AL treated by Apyrase + MT: No depolymerization was observed in the absence of ATP (track 4)
